Assay results taken from the supplement of paper PMC12042874.
± gives the uncertainty stated by the source.

Assay: amyloid nucleation score (Sup35N fusion, yeast selection) (log enrichment); library NNK2; higher = more nucleation; inactive = no reads after selection
Outline: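 The nucleation score equals the log enrichment of output over input reads from DiMSum, centred on the mode score of non-aggregating sequences. It was computed only for sequences with 100 or more input reads. The reads came from Illumina sequencing of plasmid inserts from psi-negative yeast expressing Sup35N fused to peptides of 20 random codons, induced with 100 μM copper sulfate for 24 hours and grown 7 days at 30°C without adenine and uracil.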

Substance | amyloid nucleation score
CKCSAAIDVRDYVS | -0.02 ± 1.1
CKHDCETWWCSY | 3.48 ± 0.058
CKLPDVTIMDYLLPFM | -0.333 ± 0.41
CKSEYIWYPKFAMGSFDPSQ | inactive
CLDPLAMSN | inactive
CLLVEHNMLWWWSCCIGCWK | 0.635 ± 0.37
CLMDTGVFREYCS | -0.585 ± 0.26
CLRSCRPYSQTIINVA | 6.16 ± 0.062
CMFFCYYLWMMRMVWSVTWS | -0.589 ± 0.53
CMFGEEFGLNKNVVGSLGLY | inactive
CMFLFYVKYLNVHSGGLIML | inactive
CMFWSHYTIRFSSWWLGGCE | -0.149 ± 0.79
CMIIKGCTVWVVRP | 9.469 ± 0.055
CMLEIVLLEDFQG | -0.632 ± 0.32
CMNSSDLECPMGDCVCVVLN | 2.82 ± 0.1
CMQTSDEPLRHGP | -0.06 ± 0.79
CMQVYTVEYTGFCCATRARK | 5.09 ± 0.066
CMRVVDGCFYFLDWSGVTDF | -1.55 ± 1.1
CMSAIFLPMIEF | -0.714 ± 0.44
CMSSDIYFLVFTESEIVSLC | -0.42 ± 0.76
CMTGNYYQP | inactive
CNCVARYGEVKEGIHVAFDY | -0.529 ± 0.76
CNFLQDNVEGVCYNRFKDCL | 0.601 ± 0.49
CNFYCPRDPQSSIVSYTMSY | -0.159 ± 1
CNGFVWLFSVGYFNNRFMWF | inactive

Substance | amyloid nucleation score
CNGSRVKDFRCRFRWNGLGL | -0.889 ± 0.41
CNMFDCCK | 0.175 ± 0.42
CNNSVGVFYKGLTELLCLRS | -0.986 ± 1.1
CNRVHYFFCFSCLWMFVFID | -2.07 ± 1.1
CNTDDWK | 0.496 ± 0.66
CPCSRCLVDNKVRL | -0.41 ± 0.45
CPLEAYLD | inactive
CPRPTCAPHCWYFVLAMVAR | -0.4 ± 0.64
CPSWSSLLISPYYYSSVSHK | -0.443 ± 0.79
CPTNIRP | -1.18 ± 0.63
CPVFGSIGGLISNSWYVTLM | 5.335 ± 0.046
CQAYSSIRFEVL | inactive
CQFSTQMMVICSFTTLTSVL | 1.98 ± 0.13
CRCTSIRGLKCIRW | 0.767 ± 0.15
CRHYRRYLLNLQVGWMR | 0.978 ± 0.27
CRIQPDFRFMCLRNCGLESR | -0.855 ± 1
CRKRGH | 1.33 ± 0.49
CRLCWE | -0.459 ± 0.61
CRLEGKTSVPCDNRGLGWAR | 0.938 ± 0.47
CRLFQSQIYERYTSRCVYRF | -1.05 ± 0.79
CRMSLRYTVPYSVQPLRGSL | 0.156 ± 0.41
CRNQGVCDAGQSLLN | 0.897 ± 0.29
CRRRSPTNGGVNVRN | 0.41 ± 0.74
CRVCRNWIWGTLSSGVTSRL | -0.61 ± 0.49
CRWDFVLWRFLCSIKKDWVT | -0.386 ± 0.79

Substance | amyloid nucleation score
CSAITEGCKGFVHDVSGVML | -0.27 ± 0.56
CSFHVGNLTWWANVEARVVV | 0.176 ± 0.29
CSFSIAFWKS | 0.714 ± 0.3
CSKMLTSNRVC | -0.583 ± 1.1
CSNADFDSRVFTDANMIFPK | 4.01 ± 0.098
CSNGLYPNTVGRLEYS | -1.05 ± 0.39
CSRIHMRIARSSLF | 1.18 ± 0.39
CSRRNRRIGVALRFIFLDIY | -0.956 ± 0.78
CSRRYSLRL | -0.319 ± 0.54
CSSWRAYWNSGLQFLVIFGV | -0.737 ± 0.32
CTIKIGWYWL | 7.512 ± 0.07
CTILVILSKVSYCQYPWEHV | 1.52 ± 0.14
CTMLLGSESEGWSLQIFVLL | 0.05 ± 0.62
CTPNWRLSSFRWYVLRTFSE | 0.052 ± 0.37
CTSCLGKRFSCLTINAGLSW | -0.916 ± 0.56
CTWTYE | 5.92 ± 0.077
CTYHAQVFTFDHPGRSTRYS | -0.274 ± 0.76
CVINKKNYDSFGFSVFTFYK | 3.19 ± 0.074
CVMGPAT | 1.02 ± 0.3
CVSFVQSFCYIHIQLNYHCR | -0.43 ± 1.1
CVVECIRSNHPSNFMMRNLG | inactive
CWGHS | -0.792 ± 0.79
CWLFNTY | 3.04 ± 0.14
CWLGASTSNGLPAAGPSGLH | 0.868 ± 0.55
CWNDVIQKMVQYNTINFVLS | 4.88 ± 0.063

Substance | amyloid nucleation score
CWSTQDHLNCVID | inactive
CWVRLIVGMTCYAFKGGSVV | 0.426 ± 0.43
CYGYMIMSAFMVGHWEPDRM | 0.205 ± 0.77
CYLGVKCVLGWQSWRVVYSN | inactive
CYNVGEGIVARIRGGSKGLK | 0.619 ± 0.81
CYRNNWTMWVVSQRYHRNGK | -0.289 ± 0.22
CYRPDRPIITIDLVCVRFS | 1.9 ± 0.2
CYSKLNASSVCIKFLPSQHE | -0.314 ± 0.27
CYWERWAS | -1.84 ± 0.78
CYYFLFNS | 2.31 ± 0.062
DAAHSFYLSSGNESFVLELT | -0.327 ± 0.63
DALDTRKLYN | inactive
DCPLYRWDTWRLSGSRT | inactive
DCSYYPSGIFMGLMFNLIAM | 3.23 ± 0.064
DCYSQPMLRVLDSVAHSVWF | 0.369 ± 0.43
DDFRGIAGIWWRG | 0.785 ± 0.51
DDIFNWFGVLGSNPLMVSVG | 0.811 ± 0.33
DDLGMTFRLG | -0.337 ± 0.79
DDLLIRYC | -0.022 ± 0.21
DDVSIL | 0.14 ± 1
DEGSNIGHGSLDIHRDCALL | -0.264 ± 0.23
DERGMCSLWSRCEYV | -0.287 ± 0.29
DERSLLDLHYCR | 0.912 ± 0.43
DESWETIFLYKCRGQNW | -0.213 ± 1.1
DFALALVYTSMCLVVLYSML | 4.4 ± 0.063

Substance | amyloid nucleation score
DFANFMGCMVNEAPRLHFAL | 0.404 ± 0.38
DFIITVL | -1.05 ± 0.78
DFIKMVV | 3.73 ± 0.12
DFITVYECHCRIFGCVDREA | -0.352 ± 0.5
DFLSVYSYIKWWAA | -0.886 ± 0.49
DFQIFYFARLFRTV | -0.681 ± 0.79
DFSFVANCSDYLLNILFKGE | -0.066 ± 0.74
DGAGKYTSPSDYDDRYRLAV | 0.466 ± 0.17
DGCDNYDSRESKTLFMRMMW | 1.11 ± 0.43
DGIDTCGMCL | -0.096 ± 0.63
DGNNVVIWLLWLSANMTGAG | 1.97 ± 0.13
DGSSDRQGVKFFVDTSFLSR | -0.593 ± 0.48
DGTNFDR | -0.92 ± 0.37
DHAGWCSDRWVTDFDFAMGN | 0.829 ± 0.5
DICAIIVHWCDDLNVAYWYL | 0.058 ± 1
DIKAWLFVRSDIVDGGFADT | -0.405 ± 0.29
DIMAAIYMDG | 0.715 ± 0.43
DINVCRVYEY | -0.011 ± 1.1
DIPTMVNGILYFTGYDPRVS | -0.647 ± 1.1
DIRIL | -0.635 ± 0.44
DISVRTMFVS | -0.392 ± 0.48
DISVYSDFVLSFICADVHPS | 5.02 ± 0.04
DISWYCGDHGSVVVECRNDL | 2.63 ± 0.069
DKKMVTTPTMPDK | 0.977 ± 0.2
DKLLMVSIFFSDSMTSLS | inactive

Substance | amyloid nucleation score
DKWLWEL | 0.575 ± 0.32
DLDRPYRDIFGTT | inactive
DLIMETYHLVSKCTFCGIEN | 6.473 ± 0.06
DLKYLGLA | -0.535 ± 0.53
DLVMVSVSADVHSSNS | 0.163 ± 0.5
DLWGTMKFNF | inactive
DLWRLMEIFMRSMRWHGITT | -0.456 ± 0.32
DLWTAWSRLHLDGG | 0.431 ± 0.23
DLYPENFASMRFRVTTSLVF | inactive
DLYSHSFNLHGYSMRVCYNE | 0.147 ± 0.65
DLYWSMLLYVMSRVYE | 0.249 ± 0.64
DMFIVYSSLYRSFLIFESLH | -2.42 ± 0.75
DMGVFSLLDNK | 0.579 ± 0.66
DMLEKKE | 5.921 ± 0.059
DMQGRVVRR | -0.855 ± 0.61
DMYDLASRSKRELF | inactive
DNCIDSCCYPLVSRVLEL | 0.354 ± 0.64
DNCSLPSGTMGSDNSGGRIQ | -0.444 ± 0.32
DNCVIRALQRRNVLVV | -1.18 ± 0.39
DNGNWVCWLHVLGQGSHRKA | inactive
DNLVCCSCSHLIVWTLSVGA | 9.548 ± 0.035
DNMSNYSGACLSNYL | -0.292 ± 0.56
DNMWV | 0.388 ± 0.54
DNWVLYNCFTTSEKLSM | 0.553 ± 0.19
DRACPYLWVPLRLRGLDTII | -1.32 ± 0.44

Substance | amyloid nucleation score
DRAWQFPGDRAINGVRSAFF | -1.04 ± 0.63
DRLGSRERDG | 0.74 ± 0.2
DRLVGVTLYSTVYSDYSSSG | -0.768 ± 1.1
DRNMRNLEIISVH | -0.091 ± 0.23
DRNYVQNSSTKMHYWASFLT | 1.71 ± 0.17
DSDHIYNRERQVIFGG | -0.607 ± 0.5
DSDSFYIMPMVHMPNNFHRD | -1.41 ± 1.1
DSFLTLTCGFRSNALYCWGV | -0.663 ± 0.55
DSGLVLNAGIIGSV | -1.11 ± 0.49
DSGRA | -0.351 ± 0.63
DSNDRWVW | -0.409 ± 0.76
DSNMRMIA | 0.448 ± 0.6
DSPRRTFIVQASHFTVYLTR | 8.111 ± 0.058
DSRCDRAPDCGMNHCIYILC | 6.76 ± 0.082
DSVFNMTIADECFG | -1.06 ± 1.1
DTCYVTTYVWWKTLCPVGLV | 1.72 ± 0.31
DTGNPVVWKRTVNCLSQVLW | 0.368 ± 0.62
DTGRFVMLVVGR | 0.304 ± 0.54
DTQGIR | -0.212 ± 0.65
DTSSYKTYDRLHQLYRNELR | 0.709 ± 0.23
DTSVMCFGTYTWLFELFFQW | -0.334 ± 0.45
DTVNWCDSGVP | -0.023 ± 0.65
DVDFRSMCEGTFSLNDQPNR | -0.825 ± 0.78
DVEHPLYWPEDVLKASSETV | 1.91 ± 0.12
